# Source: PMC12700550, “DLL4^+ neutrophils promote Notch1-mediated endothelial PANoptosis to exacerbate acute lung injury in sepsis” (The Journal of Clinical Investigation, 2025)
# Values joined by “and” are separate entries in the source; they are usually repeats but may differ in a detail not shown here. Identical values can stand only once.
# B1: eCIRP: extracellular cold-inducible RNA-binding protein; recombinant murine, produced in our laboratory (protein, UniProt P60824 1-172, looked up)
# Cold-inducible RNA-binding …: MASDEGKLFVGGLSFDTNEQALEQVFSKYGQISEVVVVKDRETQRSRGFGFVTFENIDDAKDAMMAMNGKSVDGRQIRVDQAGKSSDNRSRGYRGGSAGGRGFFRGGRSRGRGFSRGGGDRGYGGGRFESRSGGYGGSRDYYASRSQGGSYGYRSSGGSYRDSYDSYATHNE
# How the values were obtained:
# ZBP1 = ZBP1 protein in lungs of CLP mice, Western blot; assay type: in vivo, mouse; conditions: 10 mg/kg NDI, 20 h; for lung ZBP1 protein (Figure 5B): individual mice, 10 mg/kg
# Experimental: (§1) Sepsis was induced in mice by cecal ligation and puncture (CLP) as described previously ([45], [46]). Mice were anesthetized with isoflurane to a surgical plane and placed in a supine position. CLP was performed through a midline laparotomy. The abdomen was shaved and disinfected. Through a 2 cm midline incision, the cecum was exposed and then ligated with a 4-0 silk suture 1 cm proximal from the distal cecal extremity. For 20-hour CLP experiments, the cecum was punctured twice with a 22-gauge needle. A small amount of cecal content was extruded through both holes, and the ligated cecum was returned to the peritoneal cavity. The wound was closed in layers. For 10-day sepsis survival studies, the cecum was punctured once with a 22-gauge needle. A small amount of cecal content was extruded. Mice were allocated to the vehicle and adoptive transfer of DLL4^+ neutrophils or DLL4^– neutrophils groups. Adoptive transfer mice received a retro-orbital injection of 1 × 10^6 cells per mouse DLL4^+ neutrophils or DLL4^– neutrophils in […] phosphate-buffered saline (PBS) immediately after abdominal closure in both the 20-hour experiments and the survival study. Vehicle groups received an equivalent volume of PBS, while treatment groups received NDI 10 mg/kg in […] PBS via retro-orbital injection after CLP. This dose was chosen primarily on the basis of our laboratory’s prior experience, we have consistently used this dose in mouse CLP models with reproducible efficacy and without observable toxicity ([39], [44]). Sham-operated animals underwent a laparotomy without CLP. After closure, the mice received a subcutaneous injection of 0.5 mL of normal saline to overcome surgery-induced dehydration. […]
# PVECs and lung tissue were collected in previous steps. Whole-cell proteins were extracted, and the protein concentration was measured using an ABC protein assay kit (catalog 5000002, Bio-Rad). […] Bands were detected using an Odyssey FC Dual-Mode Imaging system 2800 (LI-COR).
# C57BL/6 mice, CLP sepsis [1] = test: Lung water content, CLP mice; assay type: in vivo, mouse; conditions: 20 h; for lung water content (wet weight – dry weight)/wet weight (Figure 6K): 10 mg/kg NDI, individual mice
# Experimental: Sepsis was induced in mice by cecal ligation and puncture (CLP) as described previously ([45], [46]). Mice were anesthetized with isoflurane to a surgical plane and placed in a supine position. CLP was performed through a midline laparotomy. The abdomen was shaved and disinfected. Through a 2 cm midline incision, the cecum was exposed and then ligated with a 4-0 silk suture 1 cm proximal from the distal cecal extremity. […] A small amount of cecal content was extruded through both holes, and the ligated cecum was returned to the peritoneal cavity. The wound was closed in layers. […] A small amount of cecal content was extruded. […] Vehicle groups received an equivalent volume of PBS, while treatment groups received NDI 10 mg/kg in […] PBS via retro-orbital injection after CLP. This dose was chosen primarily on the basis of our laboratory’s prior experience, we have consistently used this dose in mouse CLP models with reproducible efficacy and without observable toxicity ([39], [44]). Sham-operated animals underwent a laparotomy without CLP. After closure, the mice received a subcutaneous injection of 0.5 mL of normal saline to overcome surgery-induced dehydration. […] All mice were subcutaneously injected with a single dose of 0.1 mg/kg buprenorphine after CLP. Lung vascular leakage was quantified using the Evans blue dye–labeled (EBD-labeled) albumin extravasation assay ([48]). […] Sigma-Aldrich) via retro-orbital injection. At 1 hour after EBD administration (4.5 hours after the end of resuscitation), the lungs were perfused with heparinized (1 U/mL) normal saline via right ventricle injection to remove intravascular dye. The whole lung was dehydrated for 48 hours at 60°C, immersed in formamide (1 mL/g wet weight; Sigma-Aldrich) at 37°C for 48 hours, and centrifuged at 5,000g for 30 minutes. The amount of extracted EBD in the supernatant was quantified by spectrophotometry. The concentration of extravasated EBD-albumin in lung homogenates was expressed as nanograms EBD per milligram of dry lung tissue. Lung water content was calculated as (wet weight – dry weight)/wet weight %.
# C57BL/6 mice, CLP sepsis [2] = conditions: mouse, in vivo, 10 mg/kg
# Experimental: as §1, with “CLP.” for “CLP. This dose was chosen primarily on the basis of our laboratory’s prior experience, we have consistently used this dose in mouse CLP models with reproducible efficacy and without observable toxicity ([39], [44]). Sham-operated animals underwent a laparotomy without CLP. After closure, the mice received a subcutaneous injection of 0.5 mL of normal saline to overcome surgery-induced dehydration.”
# DLL4 = DLL4 mRNA in eCIRP-treated BMDNs, qPCR; assay type: cell-based, mouse; conditions: for DLL4 mRNA: DLL4-CIRP
# Experimental: mRNA was extracted from lung tissues with TRIzol reagent (Invitrogen, Thermo Fisher Scientific). An equal amount ([…]) of mRNA was reverse-transcribed into cDNA using the reverse transcriptase enzyme (Invitrogen, Thermo Fisher Scientific). qPCR was performed from the diluted cDNA templates with forward and reverse primers (Supplemental Table 4) and SYBR Green PCR Master Mix (Applied Biosystems, Thermo Fisher Scientific) using an Applied Biosystems 7300 real-time PCR machine. Mouse β-actin served as an internal control gene for normalization. Relative expression of mRNA was represented as fold change in comparison with the sham group.
# BMDNs (1 × 10^6) were treated with eCIRP (1 μg/mL) for 12 hours, and DLL1, DLL3, and DLL4 were analyzed by qPCR.
Molecule,lung ZBP1 protein (Figure 5B) (ZBP1; DLL4^+ neutrophils + CLP),effect on lung ZBP1 protein (ZBP1; DLL4^+ neutrophils/sepsis),lung ZBP1 protein (Figure 5B) (ZBP1; DLL4^– neutrophils + CLP),"effect on lung water content (C57BL/6 mice, CLP sepsis [1]; DLL4^+ neutrophil-injected CLP mice, 10 mg/kg)","lung water content (wet weight – dry weight)/wet weight (Figure 6K) (C57BL/6 mice, CLP sepsis [1]; DLL4^+ neutrophils + CLP)","lung water content (wet weight – dry weight)/wet weight (Figure 6K) (C57BL/6 mice, CLP sepsis [1]; DLL4^– neutrophils + CLP)","adverse effects (C57BL/6 mice, CLP sepsis [2])","effect on DLL4 expression (DLL4; BMDNs, eCIRP 1 μg/mL, 12 h)",DLL4 mRNA (DLL4; replicate 1),DLL4 mRNA (DLL4; replicate 2),DLL4 mRNA (DLL4; replicate 3),DLL4 mRNA (DLL4; replicate 4),DLL4 mRNA (DLL4; replicate 5),DLL4 mRNA (DLL4; replicate 6),DLL4 mRNA (DLL4; replicate 7),DLL4 mRNA (DLL4; replicate 8)
ECAGSPCHNGGTCEDGI [NDI],0.846 and 0.9823 and 0.8189 and 0.8666 and 0.6492 and 0.9798 and 0.8814,effectively decreased ZBP1 expression,1.332 and 0.9583 and 0.9668,"significantly attenuated these effects, reducing both lung water content and Evans blue dye content",71.922% and 71.5282% and 71.1472% and 70.6857% and 70.3749% and 72.6514% and 72.546% and 71.2677% and 69.0684% and 72.1189% and 71.6599% and 71.2762%,69.6732% and 70.471% and 69.6655% and 68.9338% and 68.9855% and 70.575% and 70.9924% and 68.7155% and 69.153%,lack of observed adverse effects in treated animals,–,–,–,–,–,–,–,–,–
B1,–,–,–,–,–,–,–,selectively upregulated DLL4,2.784,1.987,1.949,2.578,2.145,5.912,4.801,3.122
